From patent US20230203202A1 (DRAGONFLY THERAPEUTICS, published 2023)

T1: human 5T4 on the cell surface (human, UniProt Q13641 32-420)
T1 construct: whole, on cells; also called h5T4; TPBG
T1 sequence (looked up): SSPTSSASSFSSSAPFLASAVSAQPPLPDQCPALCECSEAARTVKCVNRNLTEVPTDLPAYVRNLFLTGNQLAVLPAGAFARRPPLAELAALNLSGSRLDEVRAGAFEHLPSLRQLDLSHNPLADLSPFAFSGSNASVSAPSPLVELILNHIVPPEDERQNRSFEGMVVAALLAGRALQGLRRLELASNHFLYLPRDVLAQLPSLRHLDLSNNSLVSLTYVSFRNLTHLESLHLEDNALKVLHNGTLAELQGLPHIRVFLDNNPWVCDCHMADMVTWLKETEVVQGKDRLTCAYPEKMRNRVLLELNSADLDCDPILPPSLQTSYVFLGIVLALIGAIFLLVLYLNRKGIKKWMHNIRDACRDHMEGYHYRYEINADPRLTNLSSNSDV


target: T1, human 5T4 on the cell surface; experiment: cell binding assay on 5T4-expressing tumor cells (cell line not given)

| Binder | EC50 | Max Fold Over Background (FOB) |
| --- | --- | --- |
| AB1879-TriNKET® (bispecific antibody, human IgG1, kappa, F3′ format; also called AB1879-VL-VH TriNKET®; 11F09-IGHV3-48*01 BM1-YB) DIQLTQSPSSLSASVGDRVTITCRASQGVSTSTYTYMHWFQQKPGKAPKLLIKFASNLESGVPSRFSGSGSGTDFTLTISSLQPEDFATYYCQHSWEIPWTFGCGTKVEIKGGGGSGGGGSGGGGSGGGGSEVQLVESGGGLVQPGGSLRLSCAASGFTFSDYGMHWVRQAPGKCLEWVSYISSGSSTFYYADTVKGRFTISRDNAKNSLYLQMNSLRAEDTAVYYCGSSQSYYRGTMDYWGQGTTVTVSSGSDKTHTCPPCPAPELLGGPSVFLFPPKPKDTLMISRTPEVTCVVVDVSHEDPEVKFNWYVDGVEVHNAKTKPREEQYNSTYRVVSVLTVLHQDWLNGKEYKCKVSNKALPAPIEKTISKAKGQPREPRVYTLPPCRDELTKNQVSLTCLVKGFYPSDIAVEWESNGQPENNYKTTPPVLVSDGSFTLYSKLTVDKSRWQQGNVFSCSVMHEALHNHYTQKSLSLSPG heavy: EVQLVESGGGLVKPGGSLRLSCAASGFTFSSYSMNWVRQAPGKGLEWVSSISSSSSYIYYADSVKGRFTISRDNAKNSLYLQMNSLRAEDTAVYYCARGAPIGAAAGWFDPWGQGTLVTVSSASTKGPSVFPLAPSSKSTSGGTAALGCLVKDYFPEPVTVSWNSGALTSGVHTFPAVLQSSGLYSLSSVVTVPSSSLGTQTYICNVNHKPSNTKVDKKVEPKSCDKTHTCPPCPAPELLGGPSVFLFPPKPKDTLMISRTPEVTCVVVDVSHEDPEVKFNWYVDGVEVHNAKTKPREEQYNSTYRVVSVLTVLHQDWLNGKEYKCKVSNKALPAPIEKTISKAKGQPREPQVCTLPPSRDELTENQVSLTCLVKGFYPSDIAVEWESNGQPENNYKTTPPVLDSDGSFFLYSWLTVDKSRWQQGNVFSCSVMHEALHNHYTQKSLSLSPG light: DIQMTQSPSSVSASVGDRVTITCRASQGISSWLAWYQQKPGKAPKLLIYAASSLQSGVPSRFSGSGSGTDFTLTISSLQPEDFATYYCQQGVSFPRTFGGGTKVEIKRTVAAPSVFIFPPSDEQLKSGTASVVCLLNNFYPREAKVQWKVDNALQSGNSQESVTEQDSKDSTYSLSSTLTLSKADYEKHKVYACEVTHQGLSSPVTKSFNRGEC | 9.18 nM | 62.9 fold over background |
| AB1888-TriNKET® (bispecific antibody, human IgG1, kappa, F3′ format; also called AB1888-VL-VH TriNKET®; 11F09-IGHV3-21*05 BM1-YB) DIQLTQSPSSLSASVGDRVTITCRASQGVSTSTYTYMHWFQQKPGKAPKLLIKFASNLESGVPSRFSGSGSGTDFTLTISSLQPEDFATYYCQHSWEIPWTFGCGTKVEIKGGGGSGGGGSGGGGSGGGGSEVQLVESGGGLVKPGGSLRLSCAASGFTFSDYGMHWVRQAPGKCLEWVSYISSGSSTFYYADTVKGRFTISRDNAKNSLYLQMNSLRAEDTAVYYCGSSQSYYRGTMDYWGQGTTVTVSSGSDKTHTCPPCPAPELLGGPSVFLFPPKPKDTLMISRTPEVTCVVVDVSHEDPEVKFNWYVDGVEVHNAKTKPREEQYNSTYRVVSVLTVLHQDWLNGKEYKCKVSNKALPAPIEKTISKAKGQPREPRVYTLPPCRDELTKNQVSLTCLVKGFYPSDIAVEWESNGQPENNYKTTPPVLVSDGSFTLYSKLTVDKSRWQQGNVFSCSVMHEALHNHYTQKSLSLSPG heavy: EVQLVESGGGLVKPGGSLRLSCAASGFTFSSYSMNWVRQAPGKGLEWVSSISSSSSYIYYADSVKGRFTISRDNAKNSLYLQMNSLRAEDTAVYYCARGAPIGAAAGWFDPWGQGTLVTVSSASTKGPSVFPLAPSSKSTSGGTAALGCLVKDYFPEPVTVSWNSGALTSGVHTFPAVLQSSGLYSLSSVVTVPSSSLGTQTYICNVNHKPSNTKVDKKVEPKSCDKTHTCPPCPAPELLGGPSVFLFPPKPKDTLMISRTPEVTCVVVDVSHEDPEVKFNWYVDGVEVHNAKTKPREEQYNSTYRVVSVLTVLHQDWLNGKEYKCKVSNKALPAPIEKTISKAKGQPREPQVCTLPPSRDELTENQVSLTCLVKGFYPSDIAVEWESNGQPENNYKTTPPVLDSDGSFFLYSWLTVDKSRWQQGNVFSCSVMHEALHNHYTQKSLSLSPG light: DIQMTQSPSSVSASVGDRVTITCRASQGISSWLAWYQQKPGKAPKLLIYAASSLQSGVPSRFSGSGSGTDFTLTISSLQPEDFATYYCQQGVSFPRTFGGGTKVEIKRTVAAPSVFIFPPSDEQLKSGTASVVCLLNNFYPREAKVQWKVDNALQSGNSQESVTEQDSKDSTYSLSSTLTLSKADYEKHKVYACEVTHQGLSSPVTKSFNRGEC | 18.5 nM | 22.1 fold over background |
| AB1889-TriNKET® (bispecific antibody, human IgG1, kappa, F3′ format; also called AB1889-VL-VH TriNKET®; 11F09-IGHV3-48*01 BM2-YB) DIQLTQSPSSLSASVGDRVTITCRASQGVSTSTYTYMHWFQQKPGKAPKLLIKFASNLESGVPSRFSGSGSGTDFTLTISSLQPEDFATYYCQHSWEIPWTFGCGTKVEIKGGGGSGGGGSGGGGSGGGGSEVQLVESGGGLVQPGGSLRLSCAASGFTFSDYGMHWVRQAPGKCLEWLAYISSGSSTFYYADTVKGRFTISRDNAKNSLYLQMNSLRAEDTAVYYCGSSQSYYRGTMDYWGQGTTVTVSSGSDKTHTCPPCPAPELLGGPSVFLFPPKPKDTLMISRTPEVTCVVVDVSHEDPEVKFNWYVDGVEVHNAKTKPREEQYNSTYRVVSVLTVLHQDWLNGKEYKCKVSNKALPAPIEKTISKAKGQPREPRVYTLPPCRDELTKNQVSLTCLVKGFYPSDIAVEWESNGQPENNYKTTPPVLVSDGSFTLYSKLTVDKSRWQQGNVFSCSVMHEALHNHYTQKSLSLSPG heavy: EVQLVESGGGLVKPGGSLRLSCAASGFTFSSYSMNWVRQAPGKGLEWVSSISSSSSYIYYADSVKGRFTISRDNAKNSLYLQMNSLRAEDTAVYYCARGAPIGAAAGWFDPWGQGTLVTVSSASTKGPSVFPLAPSSKSTSGGTAALGCLVKDYFPEPVTVSWNSGALTSGVHTFPAVLQSSGLYSLSSVVTVPSSSLGTQTYICNVNHKPSNTKVDKKVEPKSCDKTHTCPPCPAPELLGGPSVFLFPPKPKDTLMISRTPEVTCVVVDVSHEDPEVKFNWYVDGVEVHNAKTKPREEQYNSTYRVVSVLTVLHQDWLNGKEYKCKVSNKALPAPIEKTISKAKGQPREPQVCTLPPSRDELTENQVSLTCLVKGFYPSDIAVEWESNGQPENNYKTTPPVLDSDGSFFLYSWLTVDKSRWQQGNVFSCSVMHEALHNHYTQKSLSLSPG light: DIQMTQSPSSVSASVGDRVTITCRASQGISSWLAWYQQKPGKAPKLLIYAASSLQSGVPSRFSGSGSGTDFTLTISSLQPEDFATYYCQQGVSFPRTFGGGTKVEIKRTVAAPSVFIFPPSDEQLKSGTASVVCLLNNFYPREAKVQWKVDNALQSGNSQESVTEQDSKDSTYSLSSTLTLSKADYEKHKVYACEVTHQGLSSPVTKSFNRGEC | 20.7 nM | 11.7 fold over background |

Continued, values first:

| EC50 | Max Fold Over Background (FOB) | Binder |
| --- | --- | --- |
| 21.7 nM | 48.5 fold over background | AB1880-TriNKET® (bispecific antibody, human IgG1, kappa, F3′ format; also called AB1880-VL-VH TriNKET®; 11F09-IGHV3-21*05 BM2-YB) DIQLTQSPSSLSASVGDRVTITCRASQGVSTSTYTYMHWFQQKPGKAPKLLIKFASNLESGVPSRFSGSGSGTDFTLTISSLQPEDFATYYCQHSWEIPWTFGCGTKVEIKGGGGSGGGGSGGGGSGGGGSEVQLVESGGGLVKPGGSLRLSCEASGFTFSDYGMHWVRQAPGKCLEWLAYISSGSSTFYYADTVKGRFTISRDNAKNSLYLQMNSLRAEDTAVYYCGSSQSYYRGTMDYWGQGTTVTVSSGSDKTHTCPPCPAPELLGGPSVFLFPPKPKDTLMISRTPEVTCVVVDVSHEDPEVKFNWYVDGVEVHNAKTKPREEQYNSTYRVVSVLTVLHQDWLNGKEYKCKVSNKALPAPIEKTISKAKGQPREPRVYTLPPCRDELTKNQVSLTCLVKGFYPSDIAVEWESNGQPENNYKTTPPVLVSDGSFTLYSKLTVDKSRWQQGNVFSCSVMHEALHNHYTQKSLSLSPG heavy: EVQLVESGGGLVKPGGSLRLSCAASGFTFSSYSMNWVRQAPGKGLEWVSSISSSSSYIYYADSVKGRFTISRDNAKNSLYLQMNSLRAEDTAVYYCARGAPIGAAAGWFDPWGQGTLVTVSSASTKGPSVFPLAPSSKSTSGGTAALGCLVKDYFPEPVTVSWNSGALTSGVHTFPAVLQSSGLYSLSSVVTVPSSSLGTQTYICNVNHKPSNTKVDKKVEPKSCDKTHTCPPCPAPELLGGPSVFLFPPKPKDTLMISRTPEVTCVVVDVSHEDPEVKFNWYVDGVEVHNAKTKPREEQYNSTYRVVSVLTVLHQDWLNGKEYKCKVSNKALPAPIEKTISKAKGQPREPQVCTLPPSRDELTENQVSLTCLVKGFYPSDIAVEWESNGQPENNYKTTPPVLDSDGSFFLYSWLTVDKSRWQQGNVFSCSVMHEALHNHYTQKSLSLSPG light: DIQMTQSPSSVSASVGDRVTITCRASQGISSWLAWYQQKPGKAPKLLIYAASSLQSGVPSRFSGSGSGTDFTLTISSLQPEDFATYYCQQGVSFPRTFGGGTKVEIKRTVAAPSVFIFPPSDEQLKSGTASVVCLLNNFYPREAKVQWKVDNALQSGNSQESVTEQDSKDSTYSLSSTLTLSKADYEKHKVYACEVTHQGLSSPVTKSFNRGEC |
| 6.02 nM | 69.4 fold over background | AB1883-TriNKET® (bispecific antibody, human IgG1, kappa, F3′ format; also called AB1883-VL-VH TriNKET®; 11F09-IGHV3-11*01 BM2-YB) DIQLTQSPSSLSASVGDRVTITCRASQGVSTSTYTYMHWFQQKPGKAPKLLIKFASNLESGVPSRFSGSGSGTDFTLTISSLQPEDFATYYCQHSWEIPWTFGCGTKVEIKGGGGSGGGGSGGGGSGGGGSQVQLVESGGGLVKPGGSLRLSCAASGFTFSDYGMHWVRQAPGKCLEWLAYISSGSSTFYYADTVKGRFTISRDNAKNSLYLQMNSLRAEDTAVYYCGSSQSYYRGTMDYWGQGTTVTVSSGSDKTHTCPPCPAPELLGGPSVFLFPPKPKDTLMISRTPEVTCVVVDVSHEDPEVKFNWYVDGVEVHNAKTKPREEQYNSTYRVVSVLTVLHQDWLNGKEYKCKVSNKALPAPIEKTISKAKGQPREPRVYTLPPCRDELTKNQVSLTCLVKGFYPSDIAVEWESNGQPENNYKTTPPVLVSDGSFTLYSKLTVDKSRWQQGNVFSCSVMHEALHNHYTQKSLSLSPG heavy: EVQLVESGGGLVKPGGSLRLSCAASGFTFSSYSMNWVRQAPGKGLEWVSSISSSSSYIYYADSVKGRFTISRDNAKNSLYLQMNSLRAEDTAVYYCARGAPIGAAAGWFDPWGQGTLVTVSSASTKGPSVFPLAPSSKSTSGGTAALGCLVKDYFPEPVTVSWNSGALTSGVHTFPAVLQSSGLYSLSSVVTVPSSSLGTQTYICNVNHKPSNTKVDKKVEPKSCDKTHTCPPCPAPELLGGPSVFLFPPKPKDTLMISRTPEVTCVVVDVSHEDPEVKFNWYVDGVEVHNAKTKPREEQYNSTYRVVSVLTVLHQDWLNGKEYKCKVSNKALPAPIEKTISKAKGQPREPQVCTLPPSRDELTENQVSLTCLVKGFYPSDIAVEWESNGQPENNYKTTPPVLDSDGSFFLYSWLTVDKSRWQQGNVFSCSVMHEALHNHYTQKSLSLSPG light: DIQMTQSPSSVSASVGDRVTITCRASQGISSWLAWYQQKPGKAPKLLIYAASSLQSGVPSRFSGSGSGTDFTLTISSLQPEDFATYYCQQGVSFPRTFGGGTKVEIKRTVAAPSVFIFPPSDEQLKSGTASVVCLLNNFYPREAKVQWKVDNALQSGNSQESVTEQDSKDSTYSLSSTLTLSKADYEKHKVYACEVTHQGLSSPVTKSFNRGEC |
